Data as given in the supplement of paper PMC9112550, “Optimization of the antimicrobial peptide Bac7 by deep mutational scanning” (BMC Biology, 2022).

system: Escherichia coli TOP10; experiment: shrunken log2 fold change of peptide-encoding DNA abundance (4.5 h post-induction vs induction); higher = less antimicrobial activity (less host growth inhibition); details: time post-induction: 4.5 h; library: site-saturation at positions 5, 18, 19, 20
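Also: peptides expressed intracellularly from a pBAD plasmid library in pooled LB shake-flask culture, induced with 0.3% L-arabinose, DNA abundance read by NGS, three biological replicates, DESeq2 with apeglm shrinkage.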

Sequence | shrunken log2 fold change
RRIRDRPPRLPRPRPRPNDFPRP | 0.239
RRIRVRPPRLPRPRPRPLTFPRP | -0.271
RRIRERPPRLPRPRPRPEDGPRP | -0.0324
RRIRFRPPRLPRPRPRPIANPRP | -0.0564
RRIRMRPPRLPRPRPRPAVQPRP | 0.0778
RRIRWRPPRLPRPRPRPTVTPRP | 0.0889
RRIRDRPPRLPRPRPRPVPDPRP | -0.0933
RRIRIRPPRLPRPRPRPCSDPRP | -0.0062
RRIRWRPPRLPRPRPRPMCIPRP | -0.102
RRIRWRPPRLPRPRPRPSAMPRP | 0.252
RRIRRRPPRLPRPRPRPFHMPRP | -0.0949
RRIRQRPPRLPRPRPRPWRHPRP | 0.0151
RRIRFRPPRLPRPRPRPFKIPRP | -0.049
RRIRNRPPRLPRPRPRPPVPPRP | 0.384
RRIRARPPRLPRPRPRPYINPRP | -0.413
RRIRMRPPRLPRPRPRPETWPRP | 1.44
RRIRQRPPRLPRPRPRPHYDPRP | -0.295
RRIRQRPPRLPRPRPRPGSLPRP | 0.143
RRIRFRPPRLPRPRPRPYTPPRP | -1.28
RRIRNRPPRLPRPRPRPPQHPRP | 0.149
RRIRYRPPRLPRPRPRPNARPRP | -0.0675
RRIRYRPPRLPRPRPRPCMYPRP | -0.101
RRIRWRPPRLPRPRPRPTFVPRP | -0.183
RRIRSRPPRLPRPRPRPCTWPRP | -0.125
RRIRTRPPRLPRPRPRPGFKPRP | -0.0634

Sequence | shrunken log2 fold change
RRIRHRPPRLPRPRPRPDLWPRP | 0.0395
RRIRERPPRLPRPRPRPFWIPRP | -0.165
RRIRHRPPRLPRPRPRPINRPRP | 0.0787
RRIRARPPRLPRPRPRPHIRPRP | -0.0962
RRIRLRPPRLPRPRPRPVVKPRP | -0.166
RRIRNRPPRLPRPRPRPLVKPRP | -0.741
RRIRGRPPRLPRPRPRPHGSPRP | -0.0658
RRIRQRPPRLPRPRPRPAFIPRP | -0.239
RRIRMRPPRLPRPRPRPTKDPRP | 0.277
RRIRCRPPRLPRPRPRPGCSPRP | -0.182
RRIRCRPPRLPRPRPRPEGIPRP | -0.106
RRIRFRPPRLPRPRPRPETSPRP | 0.0493
RRIRRRPPRLPRPRPRPSCLPRP | -0.172
RRIRFRPPRLPRPRPRPTETPRP | -0.0161
RRIRARPPRLPRPRPRPREVPRP | 0.738
RRIRFRPPRLPRPRPRPTQIPRP | 0.0911
RRIRPRPPRLPRPRPRPLKRPRP | -0.161
RRIRARPPRLPRPRPRPEYEPRP | 0.262
RRIRDRPPRLPRPRPRPSMPPRP | -0.164
RRIRDRPPRLPRPRPRPRYEPRP | 0.223
RRIRWRPPRLPRPRPRPAKRPRP | -0.0468
RRIRTRPPRLPRPRPRPAEEPRP | 0.0505
RRIRHRPPRLPRPRPRPQPHPRP | -0.0753
RRIRRRPPRLPRPRPRPRGFPRP | 0.131
RRIRHRPPRLPRPRPRPSDRPRP | -0.125

Sequence | shrunken log2 fold change
RRIRQRPPRLPRPRPRPHNWPRP | -0.311
RRIRARPPRLPRPRPRPWTRPRP | 0.27
RRIRIRPPRLPRPRPRPCMFPRP | -0.738
RRIRFRPPRLPRPRPRPVHDPRP | 0.0232
RRIRTRPPRLPRPRPRPGAFPRP | 2.41
RRIRSRPPRLPRPRPRPWTQPRP | 0.149
RRIRARPPRLPRPRPRPVGTPRP | 0.441
RRIRARPPRLPRPRPRPSYAPRP | -0.165
RRIRCRPPRLPRPRPRPMFKPRP | -0.536
RRIRERPPRLPRPRPRPRDFPRP | -0.134
RRIRHRPPRLPRPRPRPLTYPRP | -0.402
RRIRPRPPRLPRPRPRPQDSPRP | -0.196
RRIRRRPPRLPRPRPRPTWLPRP | 0.633
RRIRQRPPRLPRPRPRPWNCPRP | -0.0444
RRIRMRPPRLPRPRPRPTLMPRP | 0.0126
RRIRFRPPRLPRPRPRPQCSPRP | 0.0505
RRIRSRPPRLPRPRPRPILHPRP | -0.159
RRIRTRPPRLPRPRPRPAAQPRP | 0.312
RRIRNRPPRLPRPRPRPALSPRP | 0.0962
RRIRRRPPRLPRPRPRPGYYPRP | -0.105
RRIRSRPPRLPRPRPRPPYIPRP | -0.296
RRIRVRPPRLPRPRPRPTWNPRP | 0.13
RRIRERPPRLPRPRPRPFMSPRP | -0.0685
RRIRCRPPRLPRPRPRPLGWPRP | 0.506
RRIRPRPPRLPRPRPRPSSNPRP | -0.388
